Assay results from article PMC3293846, “Optimization of Time-Course Experiments for Kinetic Model Discrimination” (PLoS ONE, 2012).

Substrate: CC(=O)C=O
Experiment: purified protein
Assay type: biochemical, Saccharomyces cerevisiae
Details: two-substrate sequential model (model 2), co-substrate glutathione, 70 mM potassium phosphate pH 6.5, 30°C, no glyoxalase II

B1: yeast glyoxalase I (EC 4.4.1.5); glyoxalase I from Saccharomyces cerevisiae (Sigma) (Saccharomyces cerevisiae S288C) (protein)
chain: MSTDSTRYPIQIEKASNDPTLLLNHTCLRVKDPARTVKFYTEHFGMKLLSRKDFEEAKFSLYFLSFPKDDIPKNKNGEPDVFSAHGVLELTHNWGTEKNPDYKINNGNEEPHRGFGHICFSVSDINKTCEELESQGVKFKKRLSEGRQKDIAFALGPDGYWIELITYSREGQEYPKGSVGNKFNHTMIRIKNPTRSLEFYQNVLGMKLLRTSEHESAKFTLYFLGYGVPKTDSVFSCESVLELTHNWGTENDPNFHYHNGNSEPQGYGHICISCDDAGALCKEIEVKYGDKIQWSPKFNQGRMKNIAFLKDPDGYSIEVVPHGLIA
notes: no tags or mass told
Km: 1.2 ± 0.19 mM
kcat: (1.7±0.38)×10^5 min^−1
